Experimental data: publication PMC8776815, “Rational design of a helical peptide inhibitor targeting c-Myb–KIX interaction” (Scientific Reports, 2022)
Positions count from the first letter of the chain named. Names may count otherwise. No end group written: not given here.

B1: Myb32 wild type (residues 284-315 of mouse c-Myb, transactivation domain fragment) (peptide)
chain: GYNDEDPEKEKRIKELELLLMSTENELKGQQAL
notes: additional Gly residue left at the N-terminus after thrombin cleavage; Myb32, residues 284-315 of mouse c-Myb; 33-residue peptide (Gly + 32 residues); also called WT; wild-type Myb32; source: E. coli BL21(DE3), purified (Ni-NTA, thrombin cleavage on the column, DEAE anion exchange); not shown: His6, N-terminal, cleaved; GB1, N-terminal, cleaved
B2: Myb32 K291R/K293R/K296R triple mutant (RRR) (peptide)
chain: B1 chain with K9R, K11R, K14R
notes: additional Gly residue left at the N-terminus after thrombin cleavage; Myb32, residues 284-315 of mouse c-Myb; also called RRR Myb32 mutant; source: E. coli BL21(DE3), purified (Ni-NTA, thrombin cleavage on the column, DEAE anion exchange); not shown: His6, N-terminal, cleaved; GB1, N-terminal, cleaved
B3: His-tag-GB1-Myb32 (wild-type Myb32 with a His-tag and GB1) (peptide)
chain: YNDEDPEKEKRIKELELLLMSTENELKGQQAL
notes: Myb32, residues 284-315 of mouse c-Myb; 6xHis-tag, B1 domain of protein G and the thrombin cleavage site stand before Myb32; coupled to the chip by amine coupling; also called immobilized wild-type Myb32; His-tagged Myb32 protein; source: E. coli BL21(DE3), purified (Ni-NTA, eluted with imidazole); not shown: His6, N-terminal, kept; GB1, N-terminal, kept
B4: Myb32 K291R (peptide)
chain: B1 chain with K9R
notes: additional Gly residue left at the N-terminus after thrombin cleavage; Myb32, residues 284-315 of mouse c-Myb; source: E. coli BL21(DE3), purified (Ni-NTA, thrombin cleavage on the column, DEAE anion exchange); not shown: His6, N-terminal, cleaved; GB1, N-terminal, cleaved
B5: Myb32 K293R/K296R (peptide)
chain: B1 chain with K11R, K14R
notes: as for B4
B6: Myb32 K296R (peptide)
chain: B1 chain with K14R
notes: as for B4
B7: Myb32 K291R/K296R (peptide)
chain: B1 chain with K9R, K14R
notes: as for B4
B8: Myb32 K293R (peptide)
chain: B1 chain with K11R
notes: as for B4
B9: Myb32 K291R/K293R (peptide)
chain: B1 chain with K9R, K11R
notes: as for B4
B10: Myb32 E292L (peptide)
chain: B1 chain with E10L
notes: as for B4

Target: T1, KIX domain of CREB-binding protein (residues 586-672 of mouse CBP) without a His-tag (mouse, UniProt P45481 586-672)
T1 construct: KIX domain, residues 586-672 of mouse CBP; the thrombin site ends in LVPR followed by G586 of KIX; also called KIX without a His-tag; source: E. coli BL21(DE3)pLysS, purified (Ni-NTA, thrombin cleavage, size exclusion chromatography); not shown: His6, N-terminal, cleaved
T1 sequence (P45481 586-672): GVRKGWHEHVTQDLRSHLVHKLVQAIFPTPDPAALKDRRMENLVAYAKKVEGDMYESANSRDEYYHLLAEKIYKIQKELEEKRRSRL
Experiment: SPR; competitive binding assay (OpenSPR, localized SPR); His-tag-GB1-Myb32 wild type immobilised by amine coupling; 1 uM KIX without His-tag injected alone or mixed with inhibitor (1 nM to 300 uM); 20 mM sodium phosphate pH 7.0, 300 mM NaCl; 30 °C
Settings: both partners purified

Molecule	IC50 [nM]	binding result
B1	10900	
B2	5600	
B3		binds

Target: T2, KIX domain of CBP in the presence of the MLL TAD peptide MLL28 (two-fold excess of MLL28 over KIX) (mouse | human, UniProt P45481 586-672; Q03164 2842-2869)
T2 construct: KIX domain, residues 586-672 of mouse CBP; single Tyr residue attached at the C-terminus of MLL28 for concentration determination; A Gly left at the N-terminus after thrombin cleavage is stated only for Myb32, it is likely on MLL28 too; also called KIX and MLL28; source: E. coli BL21(DE3)pLysS (KIX) and BL21(DE3) (MLL28), each purified; 45 uM KIX and 90 uM MLL28 together in the ITC cell; not …
T2 sequence (P45481 586-672, chain 1 of 2): as the sequence (P45481 586-672) above
T2 sequence (Q03164 other isoform, or with tags, fused parts or gaps, chain 2 of 2): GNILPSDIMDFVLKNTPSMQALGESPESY
Experiment: ITC; under the conditions of the SPR measurement: 20 mM sodium phosphate pH 7.0, 300 mM NaCl; in the presence of MLL28 (all ITC experiments)
Settings: both partners purified

Molecule	Kd [nM]	dH [kcal mol^–1]	stoichiometry N
B1	510	-13.8	0.99
B2	260	-14.8	0.99

Target: CBP KIX (Mus musculus) (UniProt P45481)
Sequence (P45481 583-668): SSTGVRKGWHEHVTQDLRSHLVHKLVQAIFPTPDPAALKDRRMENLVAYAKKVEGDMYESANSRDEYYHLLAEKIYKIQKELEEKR
Experiment: not given
Settings: cited from earlier work

Molecule	Kd [nM]
c-Myb TAD TAD (from UniProt P06876)	500

Target: T3, KIX domain of CBP (c-Myb/pKID site) (Mus musculus, UniProt P45481)
T3 construct: KIX (residues 586–672 of mouse CBP); 6xHis-tag with thrombin cleavage site (MGHHHHHHSSGLVPR) (N); made in house; host or cells: E. coli BL21(DE3)pLysS for KIX; E. coli BL21(DE3) for MLL28
Experiment: Isothermal titration calorimetry (ITC) of KIX binding of Myb32 peptides
Settings: 20 mM Tris-acetate pH 7.0, 50 mM NaCl, 30 °C, 600 μM Myb32 into 45 µM KIX + 90 µM MLL28, mean ± standard error, more than two measurements, read-out: Kd (dissociation constant for KIX binding)
Excerpt: Next, we performed isothermal titration calorimetry (ITC) measurements to investigate the KIX-binding affinity of the peptides. Although Myb32 primarily binds the c-Myb/pKID site on KIX, previous studies have shown that it also binds the MLL site, located opposite the c-Myb/pKID site[38]. Therefore, to prevent the secondary binding of Myb32, we conducted all ITC experiments in the presence of the MLL TAD peptide (residues 2842–2869, called MLL28) with a two-fold excess of MLL over KIX[38].
ITC measurements were conducted using a MicroCal iTC200 (Malvern Panalytical Ltd., Malvern, United Kingdom) in ITC buffer at 30 °C. All samples were dialyzed sufficiently before the experiments. 600 μM Myb32 was titrated into the cell containing 45 µM KIX and 90 µM MLL28. The data were analyzed using Origin software (OriginLab Co., Northampton, MA, USA) to obtain the Kd, stoichiometry of binding (N), and enthalpy change upon binding (ΔH). The Gibbs free energy change (ΔG) and entropy change (ΔS) upon binding were obtained as follows:3 ΔG=-RTln1/Kd 4 ΔS=ΔH-ΔG/T where R is the gas constant, and T is the temperature.

Molecule	Kd [nM]
GYNDEDPEKERRIKELELLLMSTENELKGQQAL [K293R]	220 ± 10
GYNDEDPEKEKRIKELELLLMSTENELKGQQAL [WT]	220 ± 10

Target: T2, KIX domain of CBP in the presence of …
Experiment: ITC; 600 uM Myb32 peptide titrated into the cell with 45 uM KIX and 90 uM MLL28; 20 mM Tris-acetate pH 7.0, 50 mM NaCl; 30 °C
Settings: both partners purified

Molecule	Kd [nM]	dH [kcal mol^–1]	stoichiometry N
B1	220	-6.49	0.97
B4	210	-6.46	0.97
B2	80	-7.57	0.99
B5	130	-7.31	0.96
B6	160	-6.3	0.96
B7	120	-7.56	0.9
B8		-7.03	0.94
B9	140	-7.31	0.84
B10	480	-5.45	0.92

Target: KIX
Experiment: not given
Settings: previous studies; read-out: Kd (dissociation constant for KIX binding); cited from earlier work
Excerpt: Although the c-Myb TAD is intrinsically disordered, the region of residues 284–315, called Myb32, has a high helical propensity. […] Moreover, Myb32 is known to bind KIX by a conformational selection mechanism. This information may provide a clue to improve the binding affinity to KIX[38],[40]. Therefore, Myb32 is a suitable template for designing peptide inhibitors.

Molecule	Kd [nM]
c-Myb TAD full length: full-length transactivation domain of c-Myb (residues 275–327), intrinsically disordered (PAAAAIQRHYNDEDPEKEKRIKELELLLMSTENELKGQQVLPTQNHTCSYPGW; transactivation domain; UniProt P10242 275-327, looked up, fragment)	500
